B1: "Na(+)/H(+) exchange regulatory cofactor NHE-RF1" (Homo sapiens), O14745 (parent)
chain: MSADAAAGAPLPRLCCLEKGPNGYGFHLHGEKGKLGQYIRLVEPGSPAEKAGLLAGDRLVEVNGENVEKETHQQVVSRIRAALNAVRLLVVDPETDEQLQKLGVQVREELLRAQEAPGQAEPPAAAEVQGAGNENEPREADKSHPEQRELRPRLCTMKKGPSGYGFNLHSDKSKPGQFIRSVDPDSPAEASGLRAQDRIVEVNGVCMEGKQHGDVVSAIRAGGDETKLLVVDRETDEFFKKCRVIPSQEHLNGPLPVPFTNGEIQKENSREALAEAALESPRPALVRSASSDTSEELNSQDSPPKQDSTAPSSTSSSDPILDFNISLAMAKERAHQKRSSKRAPQMDWSKKNELFSNL

Variants of: B1
Conditions: with CFTR

effect of a mutation on the interaction	Variant
decreasing interaction	MSADAAAGAPLPRLCCLEKGPNGYGFHLHGEKGKLGQYIRLVEPGSPAEKAGLLAGDRLVEVNGENVEKETHQQVVSRIRAALNAVRLLVVDPETDEQLQKLGVQVREELLRAQEAPGQAEPPAAAEVQGAGNENEPREADKSHPEQRELRPRLCTMKKGPSGYGFNLHSDKSKPGQFIRSVDPDSPAEASGLRAQDRIVEVNGVCMEGKQHGDVVSAIRAGGDETKLLVVDRETDEFFKKCRVIPSQEHLNGPLPVPFTNGEIQKENSREALAEAALESPRPALVRSASSDTSEELNSQDSPPKQDSTAPSSTSSSDPILDFNISLAMAKERAHQKRSSKRAPQMDWSKKNALFSNL [E353A]
